Assay results from US20080102477.

Target: T1, BubR1 (amino acids 1-514) GST-fusion protein, O60566
T1 chain: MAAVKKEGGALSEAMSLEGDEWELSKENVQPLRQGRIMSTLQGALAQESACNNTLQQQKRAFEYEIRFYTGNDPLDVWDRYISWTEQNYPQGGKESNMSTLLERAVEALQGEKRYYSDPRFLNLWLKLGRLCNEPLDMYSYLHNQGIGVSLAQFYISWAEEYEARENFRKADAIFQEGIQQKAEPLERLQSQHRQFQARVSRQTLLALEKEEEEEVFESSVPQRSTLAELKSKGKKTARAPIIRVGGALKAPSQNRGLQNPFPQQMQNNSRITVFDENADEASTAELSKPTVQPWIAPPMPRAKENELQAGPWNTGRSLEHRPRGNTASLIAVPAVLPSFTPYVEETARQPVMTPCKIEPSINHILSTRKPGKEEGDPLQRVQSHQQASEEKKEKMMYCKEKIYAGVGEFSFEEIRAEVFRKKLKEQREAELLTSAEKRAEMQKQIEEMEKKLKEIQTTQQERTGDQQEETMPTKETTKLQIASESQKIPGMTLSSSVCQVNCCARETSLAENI

B1: PCAF (amino acids 352-832) GST-fusion protein (protein)
chain: MLEEEVYSQNSPIWDQDFLSASSRTSQLGIQTVINPPPVAGTISYNSTSSSLEQPNAGSSSPACKASSGLEANPGEKRKMTDSHVLEEAKKPRVMGDIPMELINEVMSTITDPAAMLGPETNFLSAHSARDEAARLEERRGVIEFHVVGNSLNQKPNKKILMWLVGLQNVFSHQLPRMPKEYITRLVFDPKHKTLALIKDGRVIGGICFRMFPSQGFTEIVFCAVTSNEQVKGYGTHLMNHLKEYHIKHDILNFLTYADEYAIGYFKKQGFSKEIKIPKTKYVGYIKDYEGATLMGCELNPRIPYTEFSVIIKKQKEIIKKLIERKQAQIRKVYPGLSCFKDGVRQIPIESIPGIRETGWKPSGKEKSKEPRDPDQLYSTLKSILQQVKSHQSAWPFMEPVKRTEAPGYYEVIRFPMDLKTMSERLKNRYYVSKKLFMADLQRVFTNCKEYNPPESEYYKCANILEKFFFSKIKEAGLIDK
in vitro acetylation assay (Western blot with anti-acetyl lysine antibodies; MALDI-MS and MS/MS of pepsin peptides): the appearance of a 42 Da acetylation peak in the presence of active PCAF (PCAF 352-832) confirmed that lysine 250 (K250) is the acetylation site of BubR1
